According to PMC5596348:

How the values were obtained:
[1] = biological target: streptolysin O (Streptococcus pyogenes (group A Streptococcus), strain 854) (UniProt P0C0I3); test: BLI; […] (Octet RED384), […]; 20 mM Tris, 300 mM NaCl, 0.01% Tween 20, 1 mM DTT, pH 7.4; 30°C; […]
[2] = biological target: streptolysin O (Streptococcus pyogenes (group A Streptococcus), strain 854) (UniProt P0C0I3); test: […], room temperature; […], pH 7.4; […]
[3] = biological target: streptolysin O (Streptococcus pyogenes (group A Streptococcus), strain 854) (UniProt P0C0I3); test: […]; PBS, 1 mM DTT, pH 7.4; room temperature

Substance: 190NADase, C-terminal glycohydrolase (catalytic) domain of NADase (domain or fragment)
- Kd [1]: 20.7 µM

Substance: NAD+-glycohydrolase, full-length (enzyme)
- Kd [1]: 2.58 µM
- stoichiometry N [2]: 1
- stoichiometry N [3]: 1
